Assay results reported in the Human Domainome abundance scans (Beltran et al. 2025).
± gives the uncertainty stated by the source.

B1: Protein piccolo, residues 1058 to 1114; numbered along this chain, Q9Y6V0 (parent)
chain: TCPLCKTELNIGSKDPPNFNTCTECKNQVCNLCGFNPTPHLTEIQEWLCLNCQTQRA

Variants of: B1
Assay: abundance fitness (aPCA) (normalised: wild type 0, dead -1); higher = more abundant; growth selection in yeast, the domain comes from the species named
Details: Homo sapiens

| Variant | abundance fitness |
| --- | --- |
| TCPLCKTELNIGSKDPPNFNTCTECKNQVCNLCGFNPTPHLTEEQEWLCLNCQTQRA [I44E] | 0.146 ± 0.16 |
| TCPLCKTELNIGSKDPPNFNTCTECKNQVCNLCGFNPTPHLTEFQEWLCLNCQTQRA [I44F] | 0.155 ± 0.18 |
| TCPLCKTELNIGSKDPPNFNTCTECKNQVCNLCGFNPTPHLTEGQEWLCLNCQTQRA [I44G] | 0.02 ± 0.14 |
| TCPLCKTELNIGSKDPPNFNTCTECKNQVCNLCGFNPTPHLTEHQEWLCLNCQTQRA [I44H] | -0.166 ± 0.25 |
| TCPLCKTELNIGSKDPPNFNTCTECKNQVCNLCGFNPTPHLTEKQEWLCLNCQTQRA [I44K] | 0.247 ± 0.46 |
| TCPLCKTELNIGSKDPPNFNTCTECKNQVCNLCGFNPTPHLTEMQEWLCLNCQTQRA [I44M] | -0.214 ± 0.21 |
| TCPLCKTELNIGSKDPPNFNTCTECKNQVCNLCGFNPTPHLTENQEWLCLNCQTQRA [I44N] | -0.144 ± 0.24 |
| TCPLCKTELNIGSKDPPNFNTCTECKNQVCNLCGFNPTPHLTEPQEWLCLNCQTQRA [I44P] | 0.126 ± 0.19 |
| TCPLCKTELNIGSKDPPNFNTCTECKNQVCNLCGFNPTPHLTEQQEWLCLNCQTQRA [I44Q] | 0.074 ± 0.2 |
| TCPLCKTELNIGSKDPPNFNTCTECKNQVCNLCGFNPTPHLTERQEWLCLNCQTQRA [I44R] | -0.138 ± 0.14 |
| TCPLCKTELNIGSKDPPNFNTCTECKNQVCNLCGFNPTPHLTESQEWLCLNCQTQRA [I44S] | 0.045 ± 0.13 |
| TCPLCKTELNIGSKDPPNFNTCTECKNQVCNLCGFNPTPHLTETQEWLCLNCQTQRA [I44T] | -0.273 ± 0.17 |
| TCPLCKTELNIGSKDPPNFNTCTECKNQVCNLCGFNPTPHLTEVQEWLCLNCQTQRA [I44V] | -0.014 ± 0.15 |
| TCPLCKTELNIGSKDPPNFNTCTECKNQVCNLCGFNPTPHLTEWQEWLCLNCQTQRA [I44W] | -0.312 ± 0.16 |
| TCPLCKTELNIGSKDPPNFNTCTECKNQVCNLCGFNPTPHLTEYQEWLCLNCQTQRA [I44Y] | -0.274 ± 0.22 |
| TCPLCKTELNIGSKDPPNFNTCTECKNQVCNLCGFNPTPHLTEIDEWLCLNCQTQRA [Q45D] | -0.254 ± 0.39 |
| TCPLCKTELNIGSKDPPNFNTCTECKNQVCNLCGFNPTPHLTEIEEWLCLNCQTQRA [Q45E] | -0.38 ± 0.31 |
| TCPLCKTELNIGSKDPPNFNTCTECKNQVCNLCGFNPTPHLTEIFEWLCLNCQTQRA [Q45F] | -0.127 ± 0.17 |
| TCPLCKTELNIGSKDPPNFNTCTECKNQVCNLCGFNPTPHLTEIGEWLCLNCQTQRA [Q45G] | 0.037 ± 0.12 |
| TCPLCKTELNIGSKDPPNFNTCTECKNQVCNLCGFNPTPHLTEIHEWLCLNCQTQRA [Q45H] | -0.357 ± 0.23 |
| TCPLCKTELNIGSKDPPNFNTCTECKNQVCNLCGFNPTPHLTEIIEWLCLNCQTQRA [Q45I] | -0.047 ± 0.19 |
| TCPLCKTELNIGSKDPPNFNTCTECKNQVCNLCGFNPTPHLTEIKEWLCLNCQTQRA [Q45K] | 0.268 ± 0.28 |
| TCPLCKTELNIGSKDPPNFNTCTECKNQVCNLCGFNPTPHLTEILEWLCLNCQTQRA [Q45L] | -0.093 ± 0.1 |
| TCPLCKTELNIGSKDPPNFNTCTECKNQVCNLCGFNPTPHLTEIMEWLCLNCQTQRA [Q45M] | -0.015 ± 0.19 |

| Variant | abundance fitness |
| --- | --- |
| TCPLCKTELNIGSKDPPNFNTCTECKNQVCNLCGFNPTPHLTEINEWLCLNCQTQRA [Q45N] | 0.016 ± 0.29 |
| TCPLCKTELNIGSKDPPNFNTCTECKNQVCNLCGFNPTPHLTEIPEWLCLNCQTQRA [Q45P] | -0.141 ± 0.18 |
| TCPLCKTELNIGSKDPPNFNTCTECKNQVCNLCGFNPTPHLTEIREWLCLNCQTQRA [Q45R] | -0.003 ± 0.1 |
| TCPLCKTELNIGSKDPPNFNTCTECKNQVCNLCGFNPTPHLTEISEWLCLNCQTQRA [Q45S] | -0.037 ± 0.12 |
| TCPLCKTELNIGSKDPPNFNTCTECKNQVCNLCGFNPTPHLTEITEWLCLNCQTQRA [Q45T] | -0.202 ± 0.15 |
| TCPLCKTELNIGSKDPPNFNTCTECKNQVCNLCGFNPTPHLTEIVEWLCLNCQTQRA [Q45V] | 0.046 ± 0.14 |
| TCPLCKTELNIGSKDPPNFNTCTECKNQVCNLCGFNPTPHLTEIWEWLCLNCQTQRA [Q45W] | 0.233 ± 0.17 |
| TCPLCKTELNIGSKDPPNFNTCTECKNQVCNLCGFNPTPHLTEIYEWLCLNCQTQRA [Q45Y] | 0.047 ± 0.2 |
| TCPLCKTELNIGSKDPPNFNTCTECKNQVCNLCGFNPTPHLTEIQAWLCLNCQTQRA [E46A] | -0.176 ± 0.13 |
| TCPLCKTELNIGSKDPPNFNTCTECKNQVCNLCGFNPTPHLTEIQCWLCLNCQTQRA [E46C] | -0.292 ± 0.16 |
| TCPLCKTELNIGSKDPPNFNTCTECKNQVCNLCGFNPTPHLTEIQDWLCLNCQTQRA [E46D] | -0.415 ± 0.38 |
| TCPLCKTELNIGSKDPPNFNTCTECKNQVCNLCGFNPTPHLTEIQFWLCLNCQTQRA [E46F] | -0.363 ± 0.17 |
| TCPLCKTELNIGSKDPPNFNTCTECKNQVCNLCGFNPTPHLTEIQGWLCLNCQTQRA [E46G] | -0.042 ± 0.12 |
| TCPLCKTELNIGSKDPPNFNTCTECKNQVCNLCGFNPTPHLTEIQKWLCLNCQTQRA [E46K] | -0.079 ± 0.17 |
| TCPLCKTELNIGSKDPPNFNTCTECKNQVCNLCGFNPTPHLTEIQLWLCLNCQTQRA [E46L] | -0.124 ± 0.1 |
| TCPLCKTELNIGSKDPPNFNTCTECKNQVCNLCGFNPTPHLTEIQQWLCLNCQTQRA [E46Q] | 0.007 ± 0.17 |
| TCPLCKTELNIGSKDPPNFNTCTECKNQVCNLCGFNPTPHLTEIQRWLCLNCQTQRA [E46R] | -0.085 ± 0.1 |
| TCPLCKTELNIGSKDPPNFNTCTECKNQVCNLCGFNPTPHLTEIQTWLCLNCQTQRA [E46T] | -0.083 ± 0.19 |
| TCPLCKTELNIGSKDPPNFNTCTECKNQVCNLCGFNPTPHLTEIQVWLCLNCQTQRA [E46V] | -0.033 ± 0.12 |
| TCPLCKTELNIGSKDPPNFNTCTECKNQVCNLCGFNPTPHLTEIQWWLCLNCQTQRA [E46W] | -0.401 ± 0.18 |
| TCPLCKTELNIGSKDPPNFNTCTECKNQVCNLCGFNPTPHLTEIQYWLCLNCQTQRA [E46Y] | -0.349 ± 0.25 |
| TCPLCKTELNIGSKDPPNFNTCTECKNQVCNLCGFNPTPHLTEIQEALCLNCQTQRA [W47A] | -0.102 ± 0.14 |
| TCPLCKTELNIGSKDPPNFNTCTECKNQVCNLCGFNPTPHLTEIQECLCLNCQTQRA [W47C] | -0.134 ± 0.16 |
